Experimental data from US20250197488A1 (MABWELL SHANGHAI BIOSCIENCE, published 2025).
Numbering of substitutions follows the chain as printed. Where two headings read alike, the source gives them in different places.

B1: hz8C8-VHm1 + hz8C8-VL (antibody, human IgG1, kappa, V domains shown)
VH: EVQLVESGGGLVQPGGSLRLSCAASGFTFSSFGMHWVRQAPGKGLEWVAYITPGSNTIYYADTVKGRFTISRDNAKNSLYLQMNSLRAEDTAVYYCAREYYSYDEGFAYWGQGTLVTVSS
VL: EIVLTQSPATLSLSPGERATLSCSVSSSISSNYLHWYQQKPGQAPRLLIYRTSNLASGIPARFSGSGSGTDFTLTISSLEPEDFAVYYCQQGVDVPFTFGQGTKLEIKR
notes: human IgG1 constant regions
B2: hz8C8-VHm1 + hz8C8-VLm3 (antibody, human IgG1, kappa, V domains shown)
VH: B1 VH
VL: B1 VL with S28L
notes: human IgG1 constant regions
B3: hz8C8-VHm1 + hz8C8-VLm1 (antibody, human IgG1, kappa, V domains shown)
VH: B1 VH
VL: B1 VL with S30P
notes: human IgG1 constant regions
B4: hz8C8-VHm1 + hz8C8-VLm2 (antibody, human IgG1, kappa, V domains shown)
VH: B1 VH
VL: B1 VL with N32K
notes: human IgG1 constant regions
B5: hz18A10-VHm5 + hz18A10-VLm9 (antibody, V domains shown)
VH: EVQLVQSGAEVKKPGASVKVSCKASGYTFITYNMDWVRQAPGQGLEWMGTIYPGNGDTSYNQKFKGRVTMTRDTSTSTAYMELSSLRSEDTAVYYCARADLHFLDYWGQGTLVTVSS
VL: DIQMTQSPSSLSASVGDRVTITCKASQSVYSDVAWYQQKPGKAPKLLIYSASNRYTGVPSRFSGSGSGTDFTFTISSLQPEDIATYYCQHDYSSPYTFGQGTKLEIK
notes: Constant regions not restated for this antibody
B6: hz18A10-VHm9 + hz18A10-VLm19 (antibody, V domains shown)
VH: B5 VH with I30T, N33D, D35S, A79V, A99G, H102Y, F103A
VL: B5 VL with S31R
notes: as for B5
B7: hz18A10-VHm10 + hz18A10-VLm19 (antibody, V domains shown)
VH: B5 VH with I30N, T31H, A79V, A99G, H102Y, F103A
VL: B5 VL with S31R
notes: as for B5
B8: hz18A10-VHm6 + hz18A10-VLm19 (antibody, V domains shown)
VH: B5 VH with I30N, T31H, N33D, A79V, A99G, H102Y, F103A
VL: B5 VL with S31R
notes: as for B5
B9: hz18A10-VHm8 + hz18A10-VLm19 (antibody, V domains shown)
VH: B5 VH with I30T, N33D, D35H, A79V, A99G, H102Y, F103A
VL: B5 VL with S31R
notes: as for B5
B10: hz18A10-VHm16 + hz18A10-VLm19 (antibody, V domains shown)
VH: B5 VH with I30T, T31H, N33D, G56A, A79V, A99G, H102Y, F103A
VL: B5 VL with S31R
notes: as for B5
B11: hz18A10-VHm6 + hz18A10-VLm9 (antibody, V domains shown)
VH: B5 VH with I30N, T31H, N33D, A79V, A99G, H102Y, F103A
VL: B5 VL
notes: as for B5
B12: hz18A10-VHm17 + hz18A10-VLm19 (antibody, V domains shown)
VH: B5 VH with I30T, T31H, N33D, N55E, A79V, A99G, H102Y, F103A
VL: B5 VL with S31R
notes: as for B5
B13: hz18A10-VHm7 + hz18A10-VLm19 (antibody, V domains shown)
VH: B5 VH with I30T, N33D, M34I, A79V, A99G, H102Y, F103A
VL: B5 VL with S31R
notes: as for B5
B14: hz18A10-VHm20 + hz18A10-VLm19 (antibody, V domains shown)
VH: B5 VH with I30T, T31H, N55Q, A79V, A99G, H102Y, F103A
VL: B5 VL with S31R
notes: as for B5
B15: hz18A10-VHm15 + hz18A10-VLm19 (antibody, V domains shown)
VH: B5 VH with I30T, T31H, N33S, A79V, A99G, H102Y, F103A
VL: B5 VL with S31R
notes: as for B5
B16: hz18A10-VHm18 + hz18A10-VLm19 (antibody, V domains shown)
VH: B5 VH with I30T, T31H, N55E, A79V, A99G, H102Y, F103A
VL: B5 VL with S31R
notes: as for B5
B17: hz18A10-VHm11 + hz18A10-VLm19 (antibody, V domains shown)
VH: B5 VH with I30T, T31H, A79V, A99G, H102Y, F103A
VL: B5 VL with S31R
notes: as for B5
B18: hz18A10-VHm13 + hz18A10-VLm19 (antibody, V domains shown)
VH: B5 VH with I30T, T31H, N33E, A79V, A99G, H102Y, F103A
VL: B5 VL with S31R
notes: as for B5
B19: hz18A10-VHm14 + hz18A10-VLm19 (antibody, V domains shown)
VH: B5 VH with I30T, T31H, N33Q, A79V, A99G, H102Y, F103A
VL: B5 VL with S31R
notes: as for B5
B20: hz18A10-VHm12 + hz18A10-VLm19 (antibody, V domains shown)
VH: B5 VH with I30T, T31H, N33D, A79V, A99G, H102Y, F103A
VL: B5 VL with S31R
notes: as for B5

Experiments:
[1] = molecular target: T1, human IL-11 (AAH12506.1, Pro22-Leu199) (human, UniProt P20809 22-199); assay: BLI (Octet), antibody captured, human IL-11 in solution
T1 construct: The range Pro22-Leu199 counts on AAH12506.1; The Octet runs say only 'human IL-11'; also called hIL-11
T1 chain: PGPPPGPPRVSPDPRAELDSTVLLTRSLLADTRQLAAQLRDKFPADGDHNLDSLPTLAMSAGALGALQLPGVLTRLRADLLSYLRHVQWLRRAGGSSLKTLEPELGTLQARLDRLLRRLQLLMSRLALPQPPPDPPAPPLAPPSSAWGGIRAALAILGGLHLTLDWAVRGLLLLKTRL
Protocol: The affinity of the murine antibodies purified from the hybridoma supernatants was determined using an Octet QKe System instrument from Fortebio Inc. with an anti-mouse IgG Fc Capture biosensor to capture the Fc fragments of the antibodies, for which an anti-IL-11 antibody named “3C6-mFc” recombinantly expressed was used at the same concentration as a positive control. Specifically, a hybridoma supernatant was diluted with HBS-EP+ buffer (GE), and was allowed to pass through the surface of AMC probes (Cat: 18-5088, PALL), and so the antibody in the hybridoma supernatant was captured on the surface of the probes; then, human IL-11 diluted in the HBS-EP+ buffer (300 nM) was used as a mobile phase to react with the antibody captured on the surface of the probes. Both the binding and the dissociating were conducted for 300 seconds. When the experiment was finished, data from which response values of blank controls had been deducted was fitted using a 1:1 Langmuir binding model by software, and then kinetic constants for antigen-antibody binding were calculated. Binding signals were detected on the Octet QKe System instrument with Hy5C2, Hy8C8, Hy16B5, Hy18A10, and Hy18H10.
The affinity of hz18A10 and hz8C8 was determined according to the method provided in Example 1 using AHC bioprobes for capturing human Fc fragment instead, with other conditions unchanged. A recombinantly expressed anti-IL-11 antibody 3C6-hFc was used at the same concentration as a positive control.
(§1) Then, light and heavy chain expression vectors for preparing mutant antibodies were constructed according to the method for preparing the recombinant antibodies provided in Example 4, using the mutant sequences shown in Table 3 which accordingly were linked with human IgG1 constant regions (SEQ ID NO. 13, and SEQ ID NO.14). Subsequently, the light chain and the heavy chain were reasonably matched and co-transfected into eukaryotic cells for transient expression, and then recombination protein samples of the mutant antibodies were obtained through affinity purification. The samples obtained were tested for affinity on Fortebio Octet, according to the method for measuring affinity provided in Example 1.

[2] = molecular target: T2, IL-11 (Cat. 12225-HNCE, Sino Biological Inc.) (UniProt P20809 22-199, limits assumed); assay: cell-based or functional assay
T2 sequence (looked up): T1 chain with L154H

[3] = molecular target: T2, IL-11 (Cat. 12225-HNCE, Sino Biological …); assay: competition ELISA, IL-11/IL-11Rα/GP130 complex
Protocol: The activity of the recombinant murine anti-IL-11 antibodies for blocking the formation of IL-11/IL-11Rα/GP130 complex was analyzed via competition ELISA. IL-11Rα-His (NP_004503.1, Met1-Val363, C-terminus-6-His Tag) was firstly added into ELISA plates to be coated overnight. Next day, samples were prepared as follows. […] After co-incubating and washing, an HRP conjugated anti-human Fc secondary antibody was added to develop the color which was then detected.
as §1, with “1. Further, using the protocol provided in Example 3, hz8C8 and its affinity matured mutants were analyzed for their activity for blocking the formation of IL-11/IL-11Rα/GP130 complex.” for “1.”

[4] = molecular target: T1, human IL-11 (AAH12506.1, Pro22-Leu199); assay: BLI (Octet), antibody captured, human IL-11 in solution
Procedure, shortened: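 Bio-layer interferometry on a Fortebio Octet QKe System. Antibodies (hybridoma supernatant or purified, diluted in HBS-EP+ buffer) were captured on anti-mouse IgG Fc (AMC) or anti-human Fc (AHC) biosensors. Human IL-11 at 300 nM in HBS-EP+ buffer flowed over, with 300 seconds association and 300 seconds dissociation. Blank-subtracted curves were fitted to a 1:1 Langmuir binding model to derive kon, koff and Kd.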

Binder	Kd [1]	koff [1]	kon [1]	Blocking activity (IC50), STAT3-luc reporter [2]	IC50 [3]	Kd [4]	koff [4]	kon [4]
B1	0.613 nM	0.000472 s⁻¹	770000 M⁻¹ s⁻¹	2.13 mg/L	2.09 mg/L	–	–	–
B2	0.636 nM	0.000496 s⁻¹	780000 M⁻¹ s⁻¹	0.125 mg/L	0.943 mg/L	–	–	–
B3	0.178 nM	0.000125 s⁻¹	705000 M⁻¹ s⁻¹	0.804 mg/L	1.24 mg/L	–	–	–
B4	0.388 nM	0.000229 s⁻¹	590000 M⁻¹ s⁻¹	0.038 mg/L	1.14 mg/L	–	–	–
B5	–	–	–	11.6 mg/L	–	1.15 nM	0.000732 s⁻¹	639000 M⁻¹ s⁻¹
B6	–	–	–	0.99 mg/L	–	0.538 nM	0.000448 s⁻¹	833000 M⁻¹ s⁻¹
B7	–	–	–	0.136 mg/L	–	0.235 nM	0.000216 s⁻¹	917000 M⁻¹ s⁻¹
B8	–	–	–	0.017 mg/L	–	0.213 nM	0.000194 s⁻¹	911000 M⁻¹ s⁻¹
B9	–	–	–	8.64 mg/L	–	1.44 nM	0.0011 s⁻¹	760000 M⁻¹ s⁻¹
B10	–	–	–	0.034 mg/L	–	0.0956 nM	0.00012 s⁻¹	1.26e+06 M⁻¹ s⁻¹
B11	–	–	–	0.034 mg/L	–	0.00718 nM	7.17e-06 s⁻¹	999000 M⁻¹ s⁻¹
B12	–	–	–	0.013 mg/L	–	0.00708 nM	8.23e-06 s⁻¹	1.16e+06 M⁻¹ s⁻¹
B13	–	–	–	1.22 mg/L	–	0.105 nM	0.000113 s⁻¹	1.08e+06 M⁻¹ s⁻¹
B14	–	–	–	0.061 mg/L	–	0.22 nM	0.000227 s⁻¹	1.03e+06 M⁻¹ s⁻¹
B15	–	–	–	0.511 mg/L	–	0.346 nM	0.000263 s⁻¹	760000 M⁻¹ s⁻¹
B16	–	–	–	0.79 mg/L	–	0.313 nM	0.000354 s⁻¹	1.13e+06 M⁻¹ s⁻¹
B17	–	–	–	0.112 mg/L	–	0.138 nM	0.000119 s⁻¹	862000 M⁻¹ s⁻¹
B18	–	–	–	0.338 mg/L	–	0.203 nM	0.000148 s⁻¹	729000 M⁻¹ s⁻¹
B19	–	–	–	1.03 mg/L	–	0.678 nM	0.000485 s⁻¹	716000 M⁻¹ s⁻¹
B20	–	–	–	0.011 mg/L	–	0.185 nM	0.000173 s⁻¹	934000 M⁻¹ s⁻¹
